Patent US20060084113A1 (published 2006)

Legend:
[1] = molecular target: anhydro-trypsin (agarose-immobilized, Pierce) (UniProt P00760); assay: phage on beads, elution, pfu
[2] = molecular target: trypsin (immobilized active trypsin, Pierce; or free trypsin) (UniProt P00760); assay: phage on beads, elution, pfu
[3] = molecular target: normal rabbit serum / IgG purified from normal rabbit serum; assay: phage titer after normal rabbit IgG
[4] = molecular target: human neutrophil elastase (HNE), immobilized on agarose beads (human) (UniProt P08246); assay: phage on beads, acid elution, pfu
[5] = molecular target: trypsin (immobilized active trypsin, Pierce; or free trypsin) (UniProt P00760); assay: phage on beads, acid elution, pfu
[6] = molecular target: anhydro-trypsin (agarose-immobilized, Pierce) (UniProt P00760); assay: phage on beads, acid elution, pfu; experiment 2
[7] = molecular target: anhydro-trypsin (agarose-immobilized, Pierce) (UniProt P00760); assay: phage on beads, acid elution, pfu; experiment 1
Protein A-agarose beads = Protein A-agarose beads (UniProt P38507); assay: phage titer after protein A-agarose
[8] = molecular target: normal rabbit serum / IgG purified from normal rabbit serum; assay: phage titer after normal rabbit IgG and protein A-agarose
[9] = molecular target: trypsin (immobilized active trypsin, Pierce; or free trypsin) (UniProt P00760); assay: phage on trypsin beads, pH 2.2 elution
[10] = molecular target: streptavidin (agarose-immobilized, Sigma) (UniProt P22629); assay: phage on agarose beads, pH 2.2 elution, dot blot
[11] = molecular target: anhydro-trypsin (agarose-immobilized, Pierce) (UniProt P00760); assay: phage on agarose beads, pH 2.2 elution, dot blot
[12] = molecular target: streptavidin (agarose-immobilized, Sigma) (UniProt P22629); assay: phage titer after incubation with agarose beads
[13] = molecular target: anhydro-trypsin (agarose-immobilized, Pierce) (UniProt P00760); assay: phage titer after incubation with agarose beads
[14] = molecular target: T1, human neutrophil elastase (HNE), immobilized on agarose beads (human, UniProt P08246 30-247, limits assumed); assay: phage on HNE beads, stepwise pH elution
T1 construct: also called HNE beads; leukocyte elastase
T1 sequence (looked up): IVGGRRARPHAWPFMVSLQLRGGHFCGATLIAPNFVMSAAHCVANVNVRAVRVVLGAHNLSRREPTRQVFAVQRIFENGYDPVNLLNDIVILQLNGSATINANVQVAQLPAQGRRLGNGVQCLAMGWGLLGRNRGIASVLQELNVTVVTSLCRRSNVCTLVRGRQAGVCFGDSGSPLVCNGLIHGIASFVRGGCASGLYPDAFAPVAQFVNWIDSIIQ

[15] = molecular target: T1, human neutrophil elastase (HNE), …; assay: phage on HNE beads, abbreviated pH elution

Sequence of trypsin (immobilized active trypsin, Pierce; or free trypsin) (P00760 24-246): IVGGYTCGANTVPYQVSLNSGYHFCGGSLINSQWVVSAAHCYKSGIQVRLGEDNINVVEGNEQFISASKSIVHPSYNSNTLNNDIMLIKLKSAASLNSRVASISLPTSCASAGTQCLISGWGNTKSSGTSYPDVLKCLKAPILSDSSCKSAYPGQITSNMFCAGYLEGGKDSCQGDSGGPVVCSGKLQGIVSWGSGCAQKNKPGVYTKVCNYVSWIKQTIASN
Sequence of streptavidin (agarose-immobilized, Sigma) (P22629 37-163 limits assumed): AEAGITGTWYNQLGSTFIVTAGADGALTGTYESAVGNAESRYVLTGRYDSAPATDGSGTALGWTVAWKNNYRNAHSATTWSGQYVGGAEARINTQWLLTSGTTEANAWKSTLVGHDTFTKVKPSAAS

For “M13mp18 phage (wild type control, non-display phage)”, which eluted phage, % of input [1] is on record?
Its eluted phage, % of input is 0.1 % of input.

What about the relative binding (to M13MP18) [1] of the same molecule?
Its relative binding (to M13MP18) is 1 fold.

And the eluted phage, % of input [2]?
Its eluted phage, % of input is 0.00023 % of input.

And the relative binding (to M13MP18) [2]?
The relative binding (to M13MP18) was 1 fold.

What about the % of input pfu left, +NRS [3] of the same molecule?
The % of input pfu left, +NRS was 104 % of input.

And the eluted phage, % of input [4]?
Its eluted phage, % of input is 0.0003 % of input.

What about the relative binding (to M13MP18) [4] of the same molecule?
The relative binding (to M13MP18) was 1 fold.

What about the eluted phage, % of input [5] of the same molecule?
Its eluted phage, % of input is 0.0005 % of input.

And the relative binding (to M13MP18) [5]?
The relative binding (to M13MP18) was 1 fold.

And the binding relative to M13mp18 [6]?
The binding relative to M13mp18 was 1 fold.

And the eluted phage, % of input [6]?
Its eluted phage, % of input is 0.3 % of input.

What about the binding relative to M13MP18 [7] of the same molecule?
The binding relative to M13MP18 was 1 fold.

And the eluted phage, % of input [7]?
The eluted phage, % of input was 0.2 % of input.

What about the % of input pfu left, +Protein A (Protein A-agarose beads) of the same molecule?
Its % of input pfu left, +Protein A is 72 % of input.

What about the % of input pfu left, +NRS +Protein A [8] of the same molecule?
Its % of input pfu left, +NRS +Protein A is 88 % of input.

For MK phage (control, no displayed domain), which percent of input phage recovered, CBS pH 6.5 [9] is on record?
The percent of input phage recovered, CBS pH 6.5 was 0.00028%.

What about the percent of input phage recovered, TBS pH 7.5 [9] of the same molecule?
Its percent of input phage recovered, TBS pH 7.5 is 0.00034%.

What about the total pfu recovered in elution buffer, CBS pH 6.5 [9] of the same molecule?
Its total pfu recovered in elution buffer, CBS pH 6.5 is 1.35e+06 pfu.

And the total pfu recovered in elution buffer, TBS pH 7.5 [9]?
The total pfu recovered in elution buffer, TBS pH 7.5 was 1.48e+06 pfu.

What about the percent of total phage recovered in elution buffer, 5 µl IS [10] of the same molecule?
Its percent of total phage recovered in elution buffer, 5 µl IS is < 1%.

And the percent of total phage recovered in elution buffer, 2 µl IAT [11]?
Its percent of total phage recovered in elution buffer, 2 µl IAT is < 1%.

And the percent of total phage recovered in elution buffer, 5 µl IAT [11]?
The percent of total phage recovered in elution buffer, 5 µl IAT was < 1%.

What about the percent of total phage recovered in elution buffer, 10 µl IAT [11] of the same molecule?
The percent of total phage recovered in elution buffer, 10 µl IAT was < 1%.

What about the percent residual titer, 1 h, 5 µl IS [12] of the same molecule?
Its percent residual titer, 1 h, 5 µl IS is 106%.

And the percent residual titer, 2 h, 5 µl IS [12]?
Its percent residual titer, 2 h, 5 µl IS is 96%.

What about the percent residual titer, 4 h, 5 µl IS [12] of the same molecule?
Its percent residual titer, 4 h, 5 µl IS is 98%.

And the percent residual titer, 1 h, 2 µl IAT [13]?
Its percent residual titer, 1 h, 2 µl IAT is 97%.

And the percent residual titer, 1 h, 5 µl IAT [13]?
Its percent residual titer, 1 h, 5 µl IAT is 110%.

And the percent residual titer, 1 h, 10 µl IAT [13]?
The percent residual titer, 1 h, 10 µl IAT was 99%.

What about the percent residual titer, 2 h, 2 µl IAT [13] of the same molecule?
The percent residual titer, 2 h, 2 µl IAT was 103%.

What about the percent residual titer, 2 h, 5 µl IAT [13] of the same molecule?
Its percent residual titer, 2 h, 5 µl IAT is 111%.

What about the percent residual titer, 2 h, 10 µl IAT [13] of the same molecule?
The percent residual titer, 2 h, 10 µl IAT was 93%.

What about the percent residual titer, 4 h, 2 µl IAT [13] of the same molecule?
Its percent residual titer, 4 h, 2 µl IAT is 95%.

And the percent residual titer, 4 h, 5 µl IAT [13]?
The percent residual titer, 4 h, 5 µl IAT was 96%.

What about the percent residual titer, 4 h, 10 µl IAT [13] of the same molecule?
Its percent residual titer, 4 h, 10 µl IAT is 106%.

B1: MA-ITI-E7 phage (ITI-DI-III fusion with the EpiNE-7 changes around the P1 position) (designed binder)
chain: KEDSCQLGYSAGPCVAMFPRYFYNGTSMACETFQYGGCMGNGNNFVTEKECLQTCRGAAETVESCLAKPHTENSFTNVWKDDKTLDRYANYEGCLWNATGVVVCTGDETQCYGTWVPIGLAIPENEGGGSEGGGSEGGGSEGGGTKPPEYGDTPIPGYTYINPLDGTYPPGTEQNPANPNPSLEESQPLNTFMFQNNRFRNRQGALTVYTGTVTQGTDPVKTYYQYTPVSSKAMYDAYWNGKFRDCAFHSGFNEDPFVCEYQGQSSDLPQPPVNAGGGSGGGSGGGSEGGGSEGGGSEGGGSEGGGSGGGSGSGDFDYEKMANANKGAMTENADENALQSDAKGKLDSVATDYGAAIDGFIGDVSGLANGNGATGDFAGSNSQMAQVGDGDNSPLMNNFRQYLPSLPQSVECRPFVFSAGKPYEFSIDCDKINLFRGVFAFLLYVATFMYVFSTFANILRNKES
What does the source list for B1?
fold lower total fraction eluted than EpiNE-7 phage [14]: ~40 fold; fold lower total fraction eluted than EpiNE-7 phage [15]: 40 fold; fold total fraction eluted against MA-ITI phage [15]: 10 fold
